pIC50: −log10 of the molar value. Blank lines part the entries; values can stand above or below the compound they belong to. *1 amine or outer side, *2 acyl side, *3 side chain or, on linkers, in order; H or OH if unused. Where a SMILES comes first, the peptide text is derived from it. Bridges are numbered along the chain shown (N, C = ends). Primed or numbered codes have the meaning given here. Where no end group is shown, it is not given here. Side-chain parts run from the residue outwards. [ ]: non-standard residue; d: D form. The star is where a group is joined. Trp(5-OMe) = COc1ccc2[nH]cc(C[C@H](N)C(=O)O)c2c1; DBCO = C1#Cc2ccccc2N(*)Cc2ccccc21; Igl = N[C@H](C(=O)O)C1Cc2ccccc2C1; PEG5 = NCCOCCOCCOCCOCCOCCC(=O)O; Pen = CC(C)(S)[C@H](N)C(=O)O; Suc = O=C(CCC(=O)[*:2])[*:1]; DBCO′ = dibenzocyclooctyne; Orn = NCCC[C@H](N)C(=O)O; Pra = C#CC[C@H](N)C(=O)O; Dap = NC[C@H](N)C(=O)O
Key:
[1] = biological target: T1, recombinant human EGFR (Homo sapiens, UniProt P00533); test: P2 competition ELISA (P2-Biotin dimer tracer, 50 nM EGF); format: binding
T1 construct: Fc; purchased R&D Systems
Protocol: Plates were blocked for 2 h with 2% BSA in PBS at RT. […] Plates were washed three times with PBS containing 0.05% Tween-20 (PBS-T) and then incubated with a 1:10,000 dilution of streptavidin-HRP (Thermo Fisher Scientific) diluted in assay buffer for 90 min at RT. Plates were washed an additional three times with PBS-T, and then incubated with TMB substrate (BioFx) for 15 min at RT. Reactions were stopped with stop solution (BioFx) and absorbance was read at 450 nm in a microplate reader (SpectraMax M5e, Molecular Devices).

[2] = biological target: T2, rhEGFR-Fc (Homo sapiens, UniProt P00533); test: SPR nanoparticle binding, without EGF; details: 1 mg/mL; for nanoparticle binding: FIG. 9C
T2 construct: purchased R&D Systems 344-ER-050
Protocol: (§1) Surface plasmon resonance (SPR) binding studies were carried out on a Biacore T200 instrument (GE Healthcare). Approximately 10,000 RU of anti-Fc antibody (GE Healthcare, Cat #BR100839) was immobilized via amine coupling on each of flow cells 1 and 2 of a CM5 dextran-coated gold sensor chip (GE Healthcare, Cat #BR100530). Fc tagged recombinant human EGFR (rhEGFR-Fc, R&D systems, Cat #344-ER-050) was reconstituted at 10 μg/mL in PBS and captured on flow cell 2. The contact time and resulting amount of rhEGFR-Fc capture was varied based on the nature of the analyte, namely whether it was a peptide or nanoparticle.
Nanoparticle binding assays were carried out in 10 mM HBS-EP+ buffer (GE Healthcare, Cat #BR100669) at 25° C. Nanoparticles were injected over the rh EGFR-Fc surface for 60 s, followed by dissociation for 60 s and regeneration with a 10 s pulse of 3M MgCl2. A fresh rhEGFR-Fc surface was generated for each concentration of each nanoparticle tested. Nanoparticle sensograms could not be fit accurately to the 1:1 Langmuir kinetic model due to the multivalent nature of the binding interaction between nanoparticle and target. Instead, nanoparticle binding data was presented as a plot of binding response vs. concentration at a single time point after the injection end.

[3] = biological target: T3, Fc tagged recombinant human EGFR (rhEGFR-Fc) (Homo sapiens, UniProt P00533); format: binding; details: for Result: Table 14, relative affinity compared to KD of parent P2 (FIG. 16); for KD (μM): Table 11, P2 Ala scan; for Relative Affinity: Table 11, relative to the KD of parent P2
T3 construct: purchased R&D Systems 344-ER-050
Protocol: as §1, with “Fc tagged recombinant human EGFR (rhEGFR-Fc, R&D systems, Cat #344-ER-050) was reconstituted at 10 μg/mL in PBS and captured on flow cell 2.” left out
Peptide binding assays were carried out in 10 mM PBS buffer supplemented with 0.05% surfactant P20 and 5% DMSO by volume, at 25° C. Peptides were injected over the rhEGFR-Fc surface for 60 s, followed by dissociation (buffer injection) for 60 s and regeneration with a 10 s pulse of 3M MgCl2. A fresh rhEGFR-Fc surface was generated for each concentration of each peptide tested. Peptide binding data was analyzed by fitting to a 1:1 Langmuir kinetic model to obtain the on-rate (ka), off-rate (kd) and/or equilibrium binding constant (KD) of the interaction.

Compound: COc1ccc2[nH]cc(C[C@@H]3NC(=O)[C@H](C(C)C)NC(=O)[C@H](CCC(=O)O)NC(=O)[C@H](C4Cc5ccccc5C4)NC(=O)[C@H]([C@@H](C)O)NC(=O)[C@@H](NC(=O)[C@H](C)NC(=O)[C@H](CC(=O)O)NC(C)=O)C(C)(C)SSC(C)(C)[C@@H](C(=O)N[C@@H](CC(C)C)C(=O)N[C@@H](CCC(N)=O)C(=O)NCC(=O)NCC(=O)N[C@@H](CCCCNC(=O)CCOCCOCCOCCOCCOCCNC(=O)CCC(=O)N4Cc5ccccc5C#Cc5ccccc54)C(N)=O)NC(=O)[C@H](CCC(=O)O)NC(=O)[C@H](CCCNC(=N)N)NC(=O)CNC3=O)c2c1 [P2-2/55/102, Ac-DAPenT(2Ind)GEV(5MeO)WGREPenLQGGK(DBCO)-CONH2] (Ac-DA[Pen]T[Igl]EV[Trp(5-OMe)]GRE[Pen]LQGGK([PEG5-Suc-DBCO])-NH2; disulfide 3-12)
pIC50 [1]: 6.22

Compound: COc1ccc2[nH]cc(C[C@@H]3NC(=O)[C@H](C(C)C)NC(=O)[C@H](CCC(=O)O)NC(=O)[C@H](C4Cc5ccccc5C4)NC(=O)[C@H]([C@@H](C)O)NC(=O)[C@@H](NC(=O)[C@@H]4CCCN4C(=O)[C@H](CC(=O)O)NC(C)=O)C(C)(C)SSC(C)(C)[C@@H](C(=O)N[C@@H](CC(C)C)C(=O)N[C@@H](CCC(N)=O)C(=O)NCC(=O)NCC(=O)N[C@@H](CCCCNC(=O)CCOCCOCCOCCOCCOCCNC(=O)CCC(=O)N4Cc5ccccc5C#Cc5ccccc54)C(N)=O)NC(=O)[C@H](CCC(=O)O)NC(=O)[C@H](CCCNC(=N)N)NC(=O)CNC3=O)c2c1 [P2-55/102, Ac-DPPenT(2Ind)GEV(5MeO)WGREPenLQGGK(DBCO)-CONH2] (Ac-DP[Pen]T[Igl]EV[Trp(5-OMe)]GRE[Pen]LQGGK([PEG5-Suc-DBCO])-NH2; disulfide 3-12)
pIC50 [1]: 6.08

Compound: H2N-GDP-Orn-TWEVWGREDLQ-GG-Par-G-CONH2 (H-GDP[Orn]TWEVWGREDLQGG[Pra]G-NH2; lactam 4-13; SMILES C#CC[C@H](NC(=O)CNC(=O)CNC(=O)[C@H](CCC(N)=O)NC(=O)[C@H](CC(C)C)NC(=O)[C@@H]1CC(=O)NCCC[C@H](NC(=O)[C@@H]2CCCN2C(=O)[C@H](CC(=O)O)NC(=O)CN)C(=O)N[C@@H]([C@@H](C)O)C(=O)N[C@@H](Cc2c[nH]c3ccccc23)C(=O)N[C@@H](CCC(=O)O)C(=O)N[C@@H](C(C)C)C(=O)N[C@@H](Cc2c[nH]c3ccccc23)C(=O)NCC(=O)N[C@@H](CCCNC(=N)N)C(=O)N[C@@H](CCC(=O)O)C(=O)N1)C(=O)NCC(N)=O) [Peptide P2-58]
Result [3]: No binding

Compound: H2N-GDP-Orn-TWEVWGREELQ-GG-Par-G-CONH2 (H-GDP[Orn]TWEVWGREELQGG[Pra]G-NH2; lactam 4-13; SMILES C#CC[C@H](NC(=O)CNC(=O)CNC(=O)[C@H](CCC(N)=O)NC(=O)[C@H](CC(C)C)NC(=O)[C@@H]1CCC(=O)NCCC[C@H](NC(=O)[C@@H]2CCCN2C(=O)[C@H](CC(=O)O)NC(=O)CN)C(=O)N[C@@H]([C@@H](C)O)C(=O)N[C@@H](Cc2c[nH]c3ccccc23)C(=O)N[C@@H](CCC(=O)O)C(=O)N[C@@H](C(C)C)C(=O)N[C@@H](Cc2c[nH]c3ccccc23)C(=O)NCC(=O)N[C@@H](CCCNC(=N)N)C(=O)N[C@@H](CCC(=O)O)C(=O)N1)C(=O)NCC(N)=O) [Peptide P2-61]
Result [3]: No binding

Compound: H2N-GDPDTWEVWGRE-Dap-LQ-GG-Par-G-CONH2 (H-GDPDTWEVWGRE[Dap]LQGG[Pra]G-NH2; lactam 4-13) [Peptide P2-66]
Result [3]: No binding

Compound: H2N-GDPDTWEVWGREKLQ-GG-Par-G-CONH2 (H-GDPDTWEVWGREKLQGG[Pra]G-NH2; lactam 4-13; SMILES C#CC[C@H](NC(=O)CNC(=O)CNC(=O)[C@H](CCC(N)=O)NC(=O)[C@H](CC(C)C)NC(=O)[C@@H]1CCCCNC(=O)C[C@H](NC(=O)[C@@H]2CCCN2C(=O)[C@H](CC(=O)O)NC(=O)CN)C(=O)N[C@@H]([C@@H](C)O)C(=O)N[C@@H](Cc2c[nH]c3ccccc23)C(=O)N[C@@H](CCC(=O)O)C(=O)N[C@@H](C(C)C)C(=O)N[C@@H](Cc2c[nH]c3ccccc23)C(=O)NCC(=O)N[C@@H](CCCNC(=N)N)C(=O)N[C@@H](CCC(=O)O)C(=O)N1)C(=O)NCC(N)=O) [Peptide P2-64]
Result [3]: No binding

Compound: H2N-GDPKTWEVWGREELQ-GG-Par-G-CONH2 (H-GDPKTWEVWGREELQGG[Pra]G-NH2; lactam 4-13; SMILES C#CC[C@H](NC(=O)CNC(=O)CNC(=O)[C@H](CCC(N)=O)NC(=O)[C@H](CC(C)C)NC(=O)[C@@H]1CCC(=O)NCCCC[C@H](NC(=O)[C@@H]2CCCN2C(=O)[C@H](CC(=O)O)NC(=O)CN)C(=O)N[C@@H]([C@@H](C)O)C(=O)N[C@@H](Cc2c[nH]c3ccccc23)C(=O)N[C@@H](CCC(=O)O)C(=O)N[C@@H](C(C)C)C(=O)N[C@@H](Cc2c[nH]c3ccccc23)C(=O)NCC(=O)N[C@@H](CCCNC(=N)N)C(=O)N[C@@H](CCC(=O)O)C(=O)N1)C(=O)NCC(N)=O) [Peptide P2-60]
Result [3]: No binding

Compound: P2-8: P2 alanine scan analog, alanine at position 8 (DPCTWEVAGRECLQ; disulfide 3-12 (inferred); not fully specified (N-terminus, C-terminus)) [Peptide P2-8]
KD (μM) [3]: nb | Relative Affinity [3]: nb

Other lines, results leading:

nanoparticle binding signal ([2]; 5% and 10% ligand density, FIG. 8B): comparable to EGF-NP | nanoparticle binding ([2]; 5% ligand density): minimal binding | nanoparticle binding ([2]; 10% ligand density): more robust binding
Compound: Ac-SECFPLAPDWLSCILGGK(DBCO)-CONH2 (Ac-SECFPLAPDWLSCILGGK(DBCO′)-NH2; disulfide 3-13 (inferred)) [Peptide P1]

Result [3]: No binding
Compound: H2N-GDPDTWEVWGRE-Orn-LQ-GG-Par-G-CONH2 (H-GDPDTWEVWGRE[Orn]LQGG[Pra]G-NH2; lactam 4-13; SMILES C#CC[C@H](NC(=O)CNC(=O)CNC(=O)[C@H](CCC(N)=O)NC(=O)[C@H](CC(C)C)NC(=O)[C@@H]1CCCNC(=O)C[C@H](NC(=O)[C@@H]2CCCN2C(=O)[C@H](CC(=O)O)NC(=O)CN)C(=O)N[C@@H]([C@@H](C)O)C(=O)N[C@@H](Cc2c[nH]c3ccccc23)C(=O)N[C@@H](CCC(=O)O)C(=O)N[C@@H](C(C)C)C(=O)N[C@@H](Cc2c[nH]c3ccccc23)C(=O)NCC(=O)N[C@@H](CCCNC(=N)N)C(=O)N[C@@H](CCC(=O)O)C(=O)N1)C(=O)NCC(N)=O) [Peptide P2-65]

Result [3]: No binding
Compound: H2N-GDPETWEVWGRE-Dap-LQ-GG-Par-G-CONH2 (H-GDPETWEVWGRE[Dap]LQGG[Pra]G-NH2; lactam 4-13) [Peptide P2-69]

Result [3]: No binding
Compound: H2N-GDPETWEVWGRE-Orn-LQ-GG-Par-G-CONH2 (H-GDPETWEVWGRE[Orn]LQGG[Pra]G-NH2; lactam 4-13; SMILES C#CC[C@H](NC(=O)CNC(=O)CNC(=O)[C@H](CCC(N)=O)NC(=O)[C@H](CC(C)C)NC(=O)[C@@H]1CCCNC(=O)CC[C@H](NC(=O)[C@@H]2CCCN2C(=O)[C@H](CC(=O)O)NC(=O)CN)C(=O)N[C@@H]([C@@H](C)O)C(=O)N[C@@H](Cc2c[nH]c3ccccc23)C(=O)N[C@@H](CCC(=O)O)C(=O)N[C@@H](C(C)C)C(=O)N[C@@H](Cc2c[nH]c3ccccc23)C(=O)NCC(=O)N[C@@H](CCCNC(=N)N)C(=O)N[C@@H](CCC(=O)O)C(=O)N1)C(=O)NCC(N)=O) [Peptide P2-68]

KD (μM) [3]: nb | Relative Affinity [3]: nb
Compound: P2-3: P2 alanine scan analog, alanine at position 3 (Ac-DPATWEVWGRECLQ-NH2) [Peptide P2-3]

KD (μM) [3]: nb | Relative Affinity [3]: nb
Compound: P2-12: P2 alanine scan analog, alanine at position 12 (Ac-DPCTWEVWGREALQ-NH2) [Peptide P2-12]
